In patent US20250333520A1 (SYNTHEKINE, published 2025):

T1: Fc fused hCD122 (monovalent) (human, UniProt P14784 27-240, limits assumed)
T1 construct: described only as Fc fused, monovalent
T1 sequence (looked up): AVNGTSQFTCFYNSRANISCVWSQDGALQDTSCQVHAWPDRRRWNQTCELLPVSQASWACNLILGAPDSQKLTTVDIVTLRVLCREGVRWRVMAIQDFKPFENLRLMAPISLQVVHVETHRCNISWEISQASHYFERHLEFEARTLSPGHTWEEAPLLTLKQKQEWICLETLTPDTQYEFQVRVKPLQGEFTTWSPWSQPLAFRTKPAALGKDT

T2: Fc fused hCD132 (monovalent) (human, UniProt P31785 23-262, limits assumed)
T2 construct: described only as Fc fused, monovalent
T2 sequence (looked up): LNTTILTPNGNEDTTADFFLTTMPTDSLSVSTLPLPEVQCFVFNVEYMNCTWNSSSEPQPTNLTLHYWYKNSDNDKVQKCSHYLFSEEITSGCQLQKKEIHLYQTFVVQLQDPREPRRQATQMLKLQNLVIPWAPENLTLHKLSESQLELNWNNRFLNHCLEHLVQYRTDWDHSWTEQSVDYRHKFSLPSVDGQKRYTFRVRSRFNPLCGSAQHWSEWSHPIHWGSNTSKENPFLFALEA


Assays:
[1] = target: T1, Fc fused hCD122 (monovalent); experiment: SPR, VHH dimer in the mobile phase, Fc fused hCD122 immobilized
Protocol: (§1) The affinity of the non-PEGylated and the PEGylated forms of DR638 and DR736 prepared in substantial accordance with the foregoing were evaluated by surface plasmon resonance with the VHH dimer molecule in the mobile phase and an immobilized Fc fused hCD122 and hCD132 monovalent and bivalent hCD122/hCD132 Fc construct.

[2] = target: T2, Fc fused hCD132 (monovalent); experiment: SPR, VHH dimer in the mobile phase, Fc fused hCD132 immobilized
Protocol: as §1

Kd [1] [nM] | Kd [2] [nM] | Binder
~21 | ~6.5 | DR736(DR588-DR231) (bispecific antibody, DR588 VHH - GGGS - DR231 VHH - ASHHHHHH; also called anti-IL2Rb/g VHH2 DR736; non-PEGylated DR736) QVQLQESGGGSVQVGGSLKLSCAASGYTYSSYYCMGWFRQAPGKEREGVAAIDSDGSTSYADSVKGRFTISQDDAKNTLYLQMNSLKPEDTAMYYCAASYEVVDCYPSGYGQDYWGKGTQVTVSSGGGSQVQLQESGGGSVQAGGSLRLSCTASGFTFDDREMNWYRQAPGNECELVSTISSDGSTYYADSVKGRFTISQDNAKNTVYLQMDSVKPEDTAVYYCAADFMIAIQAPGAGCWGQGTQVTVSSASHHHHHH
< 0.5 | ~0.5 | DR638(DR229-DR587) (bispecific antibody, DR229 VHH - GGGS - DR587 VHH - ASHHHHHH; also called anti-IL2Rb/g VHH2 DR638; non-PEGylated DR638) QVQLQESGGGLVQPGGSLRLSCTASGFSFSSYPMTWARQAPGKGLEWVSTIASDGGSTAYAASVEGRFTISRDNAKSTLYLQLNSLKTEDTAMYYCTKGYGDGTPAPGQGTQVTVSSGGGSQVQLQESGGGSVQVGGSLRLSCATSGDTKSIRCMGWFRQTPGKEREGIAAIDREGFATYADSVYDRFTIAQDNAQNTLYLEMNALKPEDTAMYYCAAQNMCRVVRGAMTGVDYWGKGTQVTVSSASHHHHHH
~1.1 | ~16.3 | DR638-PEG40K2a (bispecific antibody, one 40 KDa branched polyethylene glycol (mono-PEGylated, coupled with sodium cyanoborohydride at pH ~6.3; residue not stated), also called PEGylated DR638) QVQLQESGGGLVQPGGSLRLSCTASGFSFSSYPMTWARQAPGKGLEWVSTIASDGGSTAYAASVEGRFTISRDNAKSTLYLQLNSLKTEDTAMYYCTKGYGDGTPAPGQGTQVTVSSGGGSQVQLQESGGGSVQVGGSLRLSCATSGDTKSIRCMGWFRQTPGKEREGIAAIDREGFATYADSVYDRFTIAQDNAQNTLYLEMNALKPEDTAMYYCAAQNMCRVVRGAMTGVDYWGKGTQVTVSSASHHHHHH
